Laboratory results published in article PMC5505470.
Like-named read-outs stand apart in the source and are kept apart here.

Key:
PTBP1-RRM2 [1] = target: T1, PTBP1-RRM2 (UniProt P26599-1 178-317, C250S;C251S); test: NMR
PTBP1-RRM1 [2] = target: T2, PTBP1-RRM1 (UniProt P26599-1 41-163); test: NMR
PTBP1-RRM2 [3] = target: T1, PTBP1-RRM2; test: NMR solution structure model
PTBP1-RRM1 [4] = target: T2, PTBP1-RRM1; test: NMR; remark: listed apart in the source
PTBP1-RRM1;PTBP1-RRM34 = PTBP1-RRM1;PTBP1-RRM34 (;, UniProt P26599-1;P26599-1 41-163;324-531, |); test: NMR
PTBP1-RRM34 = PTBP1-RRM34 (UniProt P26599-1 324-531); test: NMR
PTBP1 full length = PTBP1 full length (UniProt P26599-1 1-531, C250S;C251S); test: UV crosslinking CLIR-MS/MS

## GGAGCGUUUGUCUAUAUGUUCC (structured_RNA) [EMCVE]
PTBP1-RRM2 [1]
  binding result: binds
PTBP1-RRM1 [2]
  binding result: binds

## GGAUAUUGCCGUCUUUUGGCAAUGUCC (structured_RNA) [EMCVF]
PTBP1-RRM2 [3]
  binding result: binds
PTBP1-RRM1 [4]
  binding result: binds

B1: EMCVDElink (structured_RNA)
RNA: GGAUACUGGCCGAAGCCGCUUGGAAUAAGGCCGGUGUGCGUUUGUCUAUAUGUUAUUUUCCAC
PTBP1-RRM1;PTBP1-RRM34
  binding result: binds
PTBP1-RRM34
  binding result: binds

B2: EMCVDElinkF (structured_RNA)
RNA: GGAUACUGGCCGAAGCCGCUUGGAAUAAGGCCGGUGUGCGUUUGUCUAUAUGUUAUUUUCCACCAUAUUGCCGUCUUUUGGCAAUGUG
PTBP1 full length
  binding result: binds
